Consider eleven molecules from patent US5801017A, “Production of recombinant factor Xa inhibitor of leech Hirudo medicinalis” (Bio-Technology General Corp., priority 1994, dated 1998).

Test [1] deals with FXaI prepeptide expressed by plasmid pFSHI-6 (Met-His-His-His-His-His-His-Gly-Thr-Asp-Asp-Asp-Asp-Lys-FXaI) (Hirudo medicinalis).
The test system of the next test is FXa. The experiment in a line: chromogenic FXa inhibitory activity assay (hydrolysis of CHG). In kind it is biochemical, bovine. As to conditions: for Inhibitory activity (specific activity), FXa: 1 mu = amount causing 50% inhibition with 2 nM FXa. On the procedure: Increasing amounts of FXaI purified on Mono-Q were preincubated for 3 minutes with 2 pmol bovine FXa in a 1 ml cuvette. The initial rate of hydrolysis of the substrate CHG was monitored at 405 nm (see Example 2). Fraction 47 was the peak fraction of a particular purification experiment.
The assay of FXa inhibitory activity is based on the inhibition of the FXa-mediated hydrolysis of the chromogenic substrate methoxycarbonyl-D-cyclohexylglycyl-glycyl-arginyl p-nitroanilide (CHG) as described below.
The appropriate substrate concentration was determined from the molar absorbance which is 8210 at 342 nm. The reaction mixture contains 50 mM Tris-HCl pH 8.2, 5 mM CaCl2, 200 mM NaCl, 0.1% PEG, 40 μM substrate, and approximately 2 nM FXa. The FXa concentration is determined more precisely from the initial (first 20 seconds) rate of CHG hydrolysis at 40 μM in the absence of inhibitor based on the kinetic parameters mentioned above.
Inhibition of the increase in absorbance may be observed in the presence of the FXa inhibitory activity of an FXa inhibitor such as FXaI of the present invention. The inhibitor concentration is the difference in absorbance between the reaction in the presence and absence of inhibitor multiplied by the FXa concentration.
This determination assumes the formation of a 1:1 enzyme-inhibitor complex, and further assumes that the dissociation constant is low enough (i.e., tight binding) to enable essentially total binding of the inhibitor (FXaI) to the enzyme (FXa). In fact, the saturation shape of the dose-response curve (FIG. 3) provides evidence that a finite and not negligible dissociation of the inhibitor-enzyme complex occurs under these conditions. The dose response curve is represented by the degree of inhibition versus FXaI concentration and is further described in Section 5.2.
The degree of dissociation of the FXa-FXaI complex is characterized by the inhibition constant (Ki) and may be determined from the inhibited velocity of the hydrolysis of the chromogenic substrate CHG. […] The Ki of naturally occurring FXa in the chromogenic assay is about 9 nM.
The determination of inhibitor concentration determined by the above method is therefore probably underestimated. It was found useful to define the FXaI concentration as the protein concentration (IC50) required to obtain a constant degree of inhibition, usually 50% and to define the amount causing 50% inhibition under these reaction conditions to be 1 milliunit (mu) or 1 pmol. IC50 is generally higher than Ki, and depending on the type of inhibition, can be shown to depend variously on substrate concentration, Ki, Km and other factors (Segel, I. (1974) "Enzyme Kinetics", Wiley Interscience). In fact, the range of values of IC50 was determined to be about 10-20 nM.
The FXaI activity assay used to determine concentration during purification and characterization was performed in an Elisa Titertek Twin Reader, Type 380 (EF LAB). The final activity measurement of purified protein was also performed in a Phillips (model PU 8720) UV/Vis scanning spectrophotometer.

In another test the test system is human plasma. The experiment in a line: APTT coagulation assay in human plasma. In kind it is biochemical. As for the experimental part: (§1) APTT (activated partial thromboplastin time) of fresh murine or human plasma was monitored by visual assessment of its clotting in the absence or presence of various amounts of FXaI. Briefly, FXaI (up to 50 μl), 100 μl of plasma and 100 μl of partial thromboplastin (Actin-FS) were incubated for 3 minutes at 37° C. The coagulation cascade was activated by the addition of 100 μl of 20 mM CaCl2. The FXaI concentration in the abscissa is based on the assumption that 1 mu=1 pmol. Murine plasma--.circle-solid.; human plasma--.diamond-solid.. The arrows indicate the FXaI concentration at which doubling of the APTT is obtained.
(§2) The inhibitory activity of FXaI was also assayed as the increase of the activated partial thromboplastin time (APTT) essentially as described in Spaethe, Haemostasis, AHS/Deutschland GmbH, Munich (1984), using as reagent Actin FS (Dade), which contains ellagic acid for activation of Factors XII and Factor XI, and soy bean phospholipid. Under these conditions, and in the presence of 20 mM CaCl2, only the intrinsic pathway of coagulation is activated.
(§3) Isoform A (the major fraction of naturally occurring FXaI isolated from DLS) was used in these experiments. […] The protein concentration of this batch was assayed by SDS-Bradford (Macart and Gerbaut, Clin. Chim. Acta 122:93-101 (1982)) and was determined to be ~20 μg/ml.

A further test deals with murine plasma. The experiment in a line: APTT coagulation assay in murine plasma. Type of test: biochemical. On the procedure: as §1, §2, §3
The subject of test [2] is thrombin. The test can be described thus: thrombin inhibition assay according to Lottenberg et al. In kind it is biochemical. On the procedure: The refolded and dialyzed protein so obtained was assayed for FXa inhibitory activity by the biochemical chromogenic assay described in Example 2. The results are shown in Table 6 as milliunits per mg protein (mu/mg). The amount of protein causing 50% inhibition in an assay mixture containing 2 nM FXa is defined as 1 mu. In addition, the refolded protein was also tested for its inhibitory effect on thrombin, another proteolytic enzyme of the coagulation cascade, which was assayed according to Lottenberg et al. Methods Enzymol. 80:341-361 (1981).

For test [3], the target named is bovine Factor Xa (bovine) (UniProt P00743).
Test [4] concerns the target thrombin.
Test [5] has as its target bovine Factor Xa (bovine) (UniProt P00743). This is another data set of the same source.
Test [6] has the same target. This is another data set of the same source.
The target in test [7] is Factor Xa. The test can be described thus: prothrombinase complex assay (FXa 250 pM, prothrombin 2.67 µM, FVa, cephalin, Ca++).
In test [8] the target is Factor Xa.
Test [9] has as its target Factor Xa. The test can be described thus: prothrombinase complex assay, modified protocol (50 pM FXa, 1.35 µM prothrombin).
The target of test [10] is bovine Factor Xa (bovine) (UniProt P00743). This is another data set of the same source.
Target sequence in this assay (P00743 41-492): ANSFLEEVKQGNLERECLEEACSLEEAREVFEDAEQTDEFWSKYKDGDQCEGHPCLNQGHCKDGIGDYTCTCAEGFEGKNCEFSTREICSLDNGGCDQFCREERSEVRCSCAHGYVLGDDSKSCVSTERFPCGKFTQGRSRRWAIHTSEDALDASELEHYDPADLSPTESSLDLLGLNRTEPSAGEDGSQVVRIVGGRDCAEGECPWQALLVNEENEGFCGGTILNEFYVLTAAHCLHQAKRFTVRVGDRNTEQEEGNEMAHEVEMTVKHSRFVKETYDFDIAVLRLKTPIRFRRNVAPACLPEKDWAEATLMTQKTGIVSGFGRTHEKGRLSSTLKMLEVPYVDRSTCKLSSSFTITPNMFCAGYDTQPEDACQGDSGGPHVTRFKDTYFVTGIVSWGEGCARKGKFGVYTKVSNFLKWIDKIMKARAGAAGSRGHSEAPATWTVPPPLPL
Test [11] deals with Factor Xa. This is another data set of the same source.
Test [12] deals with bovine Factor Xa (bovine) (UniProt P00743). The source holds these as a separate data set.
Target sequence in this assay (P00743 41-492): as above
Test [13] has the same target. The source holds these as a separate data set.
Target sequence in this assay (P00743 41-492): as above
Test [14] has the same target. The source holds these as a separate data set.
Target sequence in this assay (P00743 41-492): as above

Values joined by “and” are separate entries in the source; they are usually repeats but may differ in a detail not shown here. Identical values can stand only once.

In turn, “Enterokinase (Biozyme, Great Britain) (enzyme)” returned a cleavage efficiency by SDS-PAGE analysis in test [1] of 95%.

Take “Isoform A: major fraction of naturally occurring FXaI from DLS, eluted by low salt gradient, 13-14 kD”: the “activity in the chromogenic assay, equivalent” value with FXa (assuming tight binding between FXa and inhibitor) was 164 pmol/mL. Moreover, the “activity in the chromogenic assay” value in the test with FXa (batch of ~20 μg/ml protein) was 164 mu/ml. For the same molecule, in the test with human plasma, the “concentration causing doubling of the APTT” value is 10 mu/ml and the “concentration causing doubling of the APTT, based on protein concentration” value came to 87 nM. Also, in the test with murine plasma, the “concentration causing doubling of the APTT” value was 3.5 mu/ml and the “concentration causing doubling of the APTT, based on protein concentration” value is recorded as 30 nM.

For the molecule “Met-His-His-His-His-His-His-Gly-Thr-Asp-Asp-Asp-Asp-Lys-FXaI [FXaI prepeptide]”, the “FXa inhibitory specific activity” value with FXa (prior to cleavage with enterokinase) is listed as 1000-1200 mu/mg protein.

As to “Refolded 11"f": refolded fusion protein: 63 N-terminal amino acids of modified Cu/Zn-SOD, met-phe-val linker, FXaI tyr26 to gly110; plasmid pDeo-S-XaI-11"f"”, the “Inhibitory activity (specific activity), FXa” value in the test on FXa (listed as Refolded 11"f" Batch 1) was 150 mu/mg; with FXa (listed as Refolded 11"f" Batch 2), 95 mu/mg; with FXa (listed as Refolded 11"f" Batch 3), 89 mu/mg. The “specificity for FXa versus thrombin” value in the test with FXa (ratio of specific activities) is “greater than 80 fold”. Moreover, in the test with thrombin [2], the “Inhibitory activity (specific activity), Thrombin” value was less than 1 mu/mg.

“isoform A of naturally occurring FXaI isolated from DLS” displayed an activity in the chromogenic assay in test [3] of 164 mu/ml.

Regarding “isoform B of naturally occurring FXaI isolated from DLS”, in the test with thrombin [4], the Specific activity, mu/mg (inhibition of thrombin) was less than 1 mu/mg. In addition, in test [5], the Specific activity, mu/mg (inhibition of FXa, chromogenic assay) worked out at 507 mu/mg.

For the molecule “naturally occurring FXaI (Factor Xa inhibitor) purified from dilute leech saliva (DLS) of Hirudo medicinalis”, in test [6], the IC50 in the chromogenic FXa assay lay within 10 to 20 nM. The Ki with Factor Xa [7] turned out to be 0.072 nM; in the test with Factor Xa [9], 0.12 nM. In the test with Factor Xa [8], this molecule registered an IC50 in the prothrombinase complex assay (generation of thrombin from prothrombin) of 0.19 nM.

B1: FXaI prepeptide expressed by plasmid pFSHI-6 (Met-His-His-His-His-His-His-Gly-Thr-Asp-Asp-Asp-Asp-Lys-FXaI) (protein)
chain: MHHHHHHGTDDDDKYEVIYVDDPCEDSDCEDGNKCSPVTNECDCSPVRCRLHCNFYVKDSNGCETCACEPKCKHKNCPTGHHCNKLTNKCELKKQRRMG
Consider B1, for which, in [10], the FXa inhibitory specific activity in the chromogenic assay, prior to cleavage (mu/mg protein) was 1000 and 1200.

B2: mature recombinant FXaI obtained by enterokinase cleavage of the pFSHI-6 prepeptide (protein)
chain: YEVIYVDDPCEDSDCEDGNKCSPVTNECDCSPVRCRLHCNFYVKDSNGCETCACEPKCKHKNCPTGHHCNKLTNKCELKKQRRMG
B2 yielded a concentration causing doubling of the APTT with Factor Xa [11] of 12.2 µg/mL. In test [10], the FXa inhibitory specific activity in the chromogenic assay, after removal of the extension peptide by chromatography came out at 8000 mU/mg; the FXa inhibitory specific activity in the chromogenic assay, following cleavage with enterokinase (mu/mg protein) was 4000 and 4500.

B3: mature recombinant FXaI obtained by CNBr cleavage of the FXaI dimer (protein)
chain: YEVIYVDDPCEDSDCEDGNKCSPVTNECDCSPVRCRLHCNFYVKDSNGCETCACEPKCKHKNCPTGHHCNKLTNKCELKKQRRMG
Regarding B3, in test [12], the specific activity in the chromogenic assay (route II: refolded, then cleaved with CNBr), B turned out to be 4700 mu/mg. Also, the specific activity in the chromogenic assay (route II: refolded, then cleaved with CNBr), A in test [13] came to 2470 mu/mg. The specific FXa inhibitory activity in the chromogenic assay (route I: cleaved, then refolded) in test [14] was 1900 mU/mg.

B4: cleaved, refolded product: mature FXaI from the FXaI dimer (plasmid pMLK-XaI-D-11"m") cleaved with CNBr, then refolded (protein)
chain: YEVIYVDDPCEDSDCEDGNKCSPVTNECDCSPVRCRLHCNFYVKDSNGCETCACEPKCKHKNCPTGHHCNKLTNKCELKKQRRMG
For B4, in the test with FXa (Route I: dimer cleaved with CNBr, then refolded), the “specific FXa inhibitory activity” value is given as 1900 mU/mg.
